Results reported in the supplement of paper PMC12042874.
± gives the uncertainty stated by the source.

Assay: amyloid nucleation score (Sup35N fusion, yeast selection) (log enrichment); library NNK1; higher = more nucleation; inactive = no reads after selection
Method in brief: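 DiMSum was used to calculate nucleation scores as log enrichment of output over input reads, centred on the mode score of non-aggregating sequences. Sequences with fewer than 100 input reads were not scored. Input and output came from Illumina sequencing of plasmid inserts in psi-negative yeast expressing peptides of 20 random codons fused to Sup35N, induced 24 hours with 100 μM copper sulfate and then grown 7 days at 30°C on medium lacking adenine and uracil.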

| Substance | amyloid nucleation score |
| --- | --- |
| NCKFEKSLKPPHGPYNGNQY | 0.292 ± 0.42 |
| LFWCVSVNRDIKIQCDRTLF | 1.13 ± 0.51 |
| HEYDLDKGTS | inactive |
| FLSICVDSVKFVFGGVWTSQ | -0.882 ± 0.53 |
| QDRHYRNAKGSNSCYIRRKS | 1 ± 0.35 |
| INAFYVVLIIRYVPSSKLLI | inactive |
| LGCVVHDCYKVVDGIMSYML | 1.69 ± 0.41 |
| PIFSYFALFLGLIKHCIMSQ | -0.238 ± 0.53 |
| TDLAHLSVSMFDNFSRELVL | -0.323 ± 1.6 |
| IISRRCKML | 1.37 ± 0.5 |
| VFASVRLSCMEGGTLVG | 0.241 ± 0.33 |
| KELKYCVFALVVAD | 0.012 ± 0.63 |
| RCCLVMCWCLCKNYSN | 5.38 ± 0.049 |
| DESFCVVLFFFLCCLWFCHL | 0.184 ± 0.7 |
| ERFCQGSCCNNFMGVFIRES | 5.68 ± 0.077 |
| SFVSYYLLS | -1.09 ± 1.9 |
| FGNSCSADSNRYQIKYTMIK | 0.155 ± 0.45 |
| WVSKNRSSFMGCSSFTATWT | 0.884 ± 0.69 |
| ETRTSTETRPCKLWFYDRM | -0.718 ± 1.2 |
| LSIMVCVICSYMVKMVVTGI | inactive |
| VNYTTSQSRRDFPSNRSQSG | 0.715 ± 0.83 |
| SRLGLSSDY | 0.092 ± 0.33 |
| ALWCMRSTSRLGKCFGLVIY | -0.945 ± 0.77 |
| SKCNFVHSRLGIALQYETRL | 3.56 ± 0.1 |
| VWNNKECANFDNIWATLLIV | inactive |
| AHYPFI | 0.065 ± 1.5 |

| Substance | amyloid nucleation score |
| --- | --- |
| RCSQVGEFHFGPTDARLMGK | 0.245 ± 0.39 |
| YLLCFCR | 0.354 ± 0.27 |
| GFNLFCATESYYFFSLMVMG | -0.13 ± 0.25 |
| DFIKTTQSFQYQRAD | -0.717 ± 0.26 |
| IIFGRGFFSHSGVRTNQCYT | -1.43 ± 1 |
| MINHSEPQHCMYV | 0.466 ± 0.9 |
| GKIRSKKGQSLGQNT | -1.16 ± 1.2 |
| SVYTNVLDTTNQGTKQNGPR | 1.01 ± 0.47 |
| SSVKTVDLNCI | -0.125 ± 0.37 |
| MAGLL | -0.546 ± 1.1 |
| GLGMSRPYGSAPTRPDQNKI | 0.275 ± 1.1 |
| LLSIKSKSVFLASYCNILST | 2.71 ± 0.17 |
| VLMCDGFHALRKL | 1.97 ± 0.36 |
| TLHYRWECVLCPACRYGLSD | 1.14 ± 0.68 |
| IYWRILEL | -0.034 ± 0.85 |
| IWQFDWPHRGIEMRVRRDMT | 0.135 ± 0.69 |
| DACMTGSTLTGYLSTDVGLI | inactive |
| YIGTKCWNANHVVLLLFCRG | -0.127 ± 0.32 |
| CVKAD | -0.354 ± 0.54 |
| YSLFAGIG | 0.735 ± 0.85 |
| CEWAAGRTWMKLGSSSTKTK | 3.87 ± 0.12 |
| YCTGSRVVPDGSLVYATCNM | 0.895 ± 0.65 |
| LIYRVPIDLITNSNSALRCA | -0.018 ± 0.48 |
| RLYFRELSWSGLCMFELVRI | -0.117 ± 0.4 |
| TMVCKGSCFWSSWSITFPLQ | inactive |
| VLCSRIYDHAWAKG | inactive |

| Substance | amyloid nucleation score |
| --- | --- |
| RIGNGVLKDYRLFFFETSFT | -0.727 ± 0.36 |
| FFENWVYYHKCSHCYTAQYT | -0.559 ± 0.35 |
| GLSAEYFHFPVKRAVSMTLV | -0.049 ± 0.6 |
| TLSLTNYELSKQSWMVLC | -0.236 ± 0.64 |
| GAVDSYLQRLFGLFRWDTLK | -0.375 ± 0.64 |
| TYGGYR | -0.343 ± 0.93 |
| CLLYCTYVMRLTMLKILVVI | 1.27 ± 0.63 |
| GGLQKMVPNSNLCFLEDP | -0.713 ± 1.7 |
| DINFNDGICGIKLYCYCISN | -0.713 ± 1.7 |
| CCWSYR | 2.51 ± 0.13 |
| KMAYRVVNNLGCSIMCNICT | 7.616 ± 0.046 |
| LYGSNVVLSVRCGMHTTHCY | 2.81 ± 0.24 |
| SALLVMPRVAVSSTMVGKAT | 0.938 ± 0.45 |
| RKGSGSRLKIYVYVTVTKIG | 0.52 ± 0.93 |
| LKPLRKFRSNVNMR | inactive |
| PVRVYIGGEDACMKSTKHMY | 5.65 ± 0.085 |
| CRKFQWLSLM | -0.921 ± 1.7 |
| KSLVVACDVYSNALLRVMFR | -0.291 ± 0.26 |
| NTADTFMNLAILSC | 0.148 ± 0.35 |
| SWIANRRRFAL | 3.64 ± 0.15 |
| CLVIRFILHLSCK | 0.587 ± 0.54 |
| IYLKWHFADY | 0.529 ± 0.45 |
| VVKLRHYAEKICGSETELG | 0.003 ± 0.51 |
| YKCMSKIFQFLVWAGEEWGL | -0.398 ± 1.1 |
| SKLKAYICLCRMEIVLIPRF | -0.978 ± 1.7 |
| FLMPCFMKVGFVREEPWWRR | 0.096 ± 0.78 |

| Substance | amyloid nucleation score |
| --- | --- |
| SQLFYAILSIHYWCVTFFRC | 0.642 ± 0.33 |
| IYLCLATYFLYPRLVWTSTL | 0.521 ± 0.72 |
| LYNIVCLSDIL | 5.88 ± 0.061 |
| NIPQLVVFKWMLSTC | -0.047 ± 1.1 |
| LLGDKLV | -0.096 ± 0.46 |
| NIITIETGGRKVGTFMMYSI | inactive |
| WSFLANFNWMN | 0.157 ± 1.4 |
| TYWFMSRC | 0.254 ± 0.88 |
| DQNVAPYVSKHGVQTILKRD | -1.51 ± 1.9 |
| RRRLPGSSPISLGYFSSSLA | -0.509 ± 1.7 |
| SWWEFECETS | inactive |
| MMGASGFF | -0.14 ± 0.32 |
| WYNGNKSHGRRVPGVQPRAL | -0.046 ± 0.46 |
| NNFFITVHSLLIRSSTHMR | 0.015 ± 0.37 |
| SYGYSMLAGVWT | 0.057 ± 1.1 |
| NVGLGRWSFCGSMSVK | -0.688 ± 0.58 |
| LMWWGMNDSR | -0.025 ± 0.28 |
| LRGFRFVAIMLSVYRKVKVD | -0.531 ± 0.34 |
| LSCLRSYVTMHMGIIGYLFN | 0.218 ± 0.27 |
| LLLGYVKSSLPIVGYSRMEG | 0.548 ± 0.35 |
| IVLRDFHGLSWAWSLIVHVK | 0.039 ± 0.88 |
| SSMGPFLSV | 0.014 ± 0.48 |
| FTDSTRFGSYLLSSAMFPTM | -1.65 ± 2.7 |
| RQIVEELTSGIVGSLEV | -0.48 ± 0.57 |
| AYKGMSLPDRIFKWLVWWHN | 0.008 ± 0.53 |
| IATYCYLFSCWFIYVLT | 0.992 ± 0.84 |

| Substance | amyloid nucleation score |
| --- | --- |
| DVRAWVMARVGRGSELGARG | 0.075 ± 0.84 |
| WDWVYGKFLR | 0.736 ± 0.26 |
| AWHEGFHCCN | 1.21 ± 0.31 |
| VKLSMLWLMARLWGRLTCSG | -0.293 ± 0.47 |
| QRLCNQWMSDKLQY | 1.84 ± 0.67 |
| EVYCIDVGDLSVSGKFDRSL | 1.54 ± 0.4 |
| INNIVK | 0.602 ± 0.29 |
| ICLYGACYFGVVWSKGGPGK | -0.634 ± 0.32 |
| HWWVGKRLLLHPWVA | 0.224 ± 0.31 |
| MVAMVNT | -0.087 ± 0.28 |
| SSRYLSDSIKLAGWSIT | -1.39 ± 2.4 |
| FAELRFFCCDS | 2.45 ± 0.21 |
| YVFNFLIMLLLGVA | -0.665 ± 0.32 |
| MAKTFRLGGLDCHLNYVVWC | 0.113 ± 0.61 |
| SFLNMGCRTVYRC | 0.331 ± 0.61 |
| KRERGKISIEEAMRQAGQRS | 0.578 ± 0.7 |
| LMGSRAGSLTQLIESNTKER | -0.748 ± 1.1 |
| SVFSTEVCSTHAMILWKY | 0.117 ± 1.4 |
| NLACGFKSWDFKRMRD | 0.685 ± 0.51 |
| VRALND | -0.581 ± 0.3 |
| LLTMFLFNGSKYFLH | 2.3 ± 0.2 |
| VVTRYL | 0.403 ± 0.36 |
| NNLRLKGKKRSYRCSVIDLT | -0.256 ± 0.39 |
| ALSSWLCGSG | 0.746 ± 0.9 |
